{"source": "patent US20130071379A1", "about": "(Merck Sharp & Dohme, published 2013)", "key": {"[1]": {"target": "T1, hPCSK9v5His (human, UniProt Q8NBP7 31-692)", "T1 sequence (Q8NBP7 31-692 limits assumed)": "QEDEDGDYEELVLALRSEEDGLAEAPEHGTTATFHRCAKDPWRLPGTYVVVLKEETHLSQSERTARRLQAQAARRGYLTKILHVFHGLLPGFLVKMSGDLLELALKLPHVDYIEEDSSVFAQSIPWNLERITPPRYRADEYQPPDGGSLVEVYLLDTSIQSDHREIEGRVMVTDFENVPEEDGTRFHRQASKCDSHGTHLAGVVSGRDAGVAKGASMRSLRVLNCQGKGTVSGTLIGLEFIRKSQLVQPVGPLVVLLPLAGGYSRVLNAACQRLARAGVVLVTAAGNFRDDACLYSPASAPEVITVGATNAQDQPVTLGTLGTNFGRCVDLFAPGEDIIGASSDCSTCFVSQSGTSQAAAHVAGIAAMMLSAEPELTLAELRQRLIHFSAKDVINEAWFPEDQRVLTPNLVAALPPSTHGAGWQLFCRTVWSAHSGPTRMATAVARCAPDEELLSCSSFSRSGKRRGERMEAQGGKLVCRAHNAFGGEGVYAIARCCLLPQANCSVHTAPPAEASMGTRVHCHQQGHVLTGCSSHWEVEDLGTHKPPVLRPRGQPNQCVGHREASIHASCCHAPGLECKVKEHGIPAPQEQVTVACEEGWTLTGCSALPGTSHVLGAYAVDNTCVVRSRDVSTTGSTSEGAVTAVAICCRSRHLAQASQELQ", "test": "cell-based or functional assay"}, "[2]": {"target": "T2, mPCSK9v5His (mouse, UniProt Q80W65 35-694)", "T2 sequence (Q80W65 35-694 limits assumed)": "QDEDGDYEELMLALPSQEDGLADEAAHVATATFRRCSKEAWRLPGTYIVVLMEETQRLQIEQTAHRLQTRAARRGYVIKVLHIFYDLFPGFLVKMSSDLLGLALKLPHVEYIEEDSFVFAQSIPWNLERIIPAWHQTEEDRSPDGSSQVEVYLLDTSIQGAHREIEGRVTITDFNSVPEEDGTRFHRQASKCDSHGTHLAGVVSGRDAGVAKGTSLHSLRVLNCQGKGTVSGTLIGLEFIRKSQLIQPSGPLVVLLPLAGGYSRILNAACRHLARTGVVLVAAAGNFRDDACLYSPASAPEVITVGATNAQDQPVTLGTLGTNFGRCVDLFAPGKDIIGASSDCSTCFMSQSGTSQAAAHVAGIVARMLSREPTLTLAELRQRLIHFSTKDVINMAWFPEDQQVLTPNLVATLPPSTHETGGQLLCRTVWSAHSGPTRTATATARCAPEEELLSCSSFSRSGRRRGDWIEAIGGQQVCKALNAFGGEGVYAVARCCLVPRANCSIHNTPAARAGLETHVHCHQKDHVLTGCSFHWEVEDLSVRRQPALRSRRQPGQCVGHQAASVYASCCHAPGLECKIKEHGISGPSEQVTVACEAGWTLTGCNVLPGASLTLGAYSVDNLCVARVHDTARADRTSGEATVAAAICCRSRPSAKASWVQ", "test": "cell-based or functional assay"}, "[3]": {"target": "T1, hPCSK9v5His", "test": "SPR Biacore 2000; Fab captured on anti-Fab IgG, PCSK9 in flow", "procedure": "(§1) Anti-Fab IgG (Human specific) (Sigma, catalog #15260) was covalently coupled to surfaces 1 and 2 of a Sensor Chip CM5 via primary amine groups, using the immobilization wizard with the “Aim for immobilization” option using Biacore™ Amine Coupling Kit (cat#BR-1000-50. A target immobilization of 5000 RU was specified. The wizard uses a 7 minute activation with a 1:1 mixture of 100 mM NHS (N-Hydroxysuccinimide) and 400 mM EDC (1-ethyl-3-(3-dimethylaminopropyl)-carbodiimide), injects the ligand in several pulses to achieve the desired level, then deactivates the remaining surface with a 7 minute pulse of ethanolamine.\n(§2) Anti-PCSK9 Fabs were captured on capture surface 2, and surface 1 was used as a reference for kinetic studies of Fab:PCSK9 interactions. […] 5-10 concentrations of hPCSK9v5H is or mPCSK9v5His antigens were flowed across the surface at […] for 3-4 minutes. 15-60 minutes dissociation time was allowed before regeneration of the Anti-Fab surface with a 30 second pulse of 10 mM glycine pH 2.0.\n(§3) BiaEvaluation Software was used to evaluate the sensograms from the multiple concentration of PCSK9 antigen analyzed with each Fab, to estimate the kinetics constants of the Fab:PCSK9 interactions."}, "[4]": {"target": "T2, mPCSK9v5His", "test": "SPR Biacore 2000; Fab captured on anti-Fab IgG, PCSK9 in flow", "procedure": "as §1, §2, §3"}, "[5]": {"target": "T3, AlexaFluor647-labeled PCSK9", "T3 construct": "Used in the TR-FRET assay and in the internalization assay; also called AF647-PCSK9; AF-labeled PCSK9", "T3 sequence (Q8NBP7 153-692, chain 1 of 2)": "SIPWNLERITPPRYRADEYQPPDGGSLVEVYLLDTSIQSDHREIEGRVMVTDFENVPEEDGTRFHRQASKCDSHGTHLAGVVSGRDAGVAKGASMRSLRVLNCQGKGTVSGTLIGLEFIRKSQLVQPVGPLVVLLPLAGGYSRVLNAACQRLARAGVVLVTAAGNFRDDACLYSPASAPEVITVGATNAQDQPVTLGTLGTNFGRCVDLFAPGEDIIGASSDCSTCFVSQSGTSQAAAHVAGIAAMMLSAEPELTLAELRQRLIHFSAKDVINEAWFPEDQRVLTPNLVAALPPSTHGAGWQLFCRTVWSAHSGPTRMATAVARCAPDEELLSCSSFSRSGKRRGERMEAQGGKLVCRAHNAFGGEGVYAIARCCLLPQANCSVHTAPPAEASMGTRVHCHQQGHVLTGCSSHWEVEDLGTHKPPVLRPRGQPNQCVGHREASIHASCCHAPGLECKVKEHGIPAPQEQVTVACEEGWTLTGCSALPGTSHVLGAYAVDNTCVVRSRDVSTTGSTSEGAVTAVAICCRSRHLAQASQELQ", "T3 sequence (Q8NBP7 31-152, chain 2 of 2)": "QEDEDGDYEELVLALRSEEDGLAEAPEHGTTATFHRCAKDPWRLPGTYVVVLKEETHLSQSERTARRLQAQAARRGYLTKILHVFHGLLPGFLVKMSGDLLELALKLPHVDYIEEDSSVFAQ", "test": "TR-FRET competition assay: 1B20 titrated against 10 nM AF647-PCSK9; the blocked ligand is Eu-sLDLR (about 4 nM); the Ratio falls from about 6200 to about 1000 (right curve, squares)", "procedure": "(§4) AlexaFluor647-labeled PCSK9 (final concentration 10 nM) was combined with varying amounts of 1B20 and to this was added Eu(8044)-labeled LDLR ectodomain to a final concentration of ˜4 nM (sufficient to give ˜20,000 counts at F1620 nM on the Rubystar) in […] (pH 7.4), 150 mM NaCl, 0.1 mM CaCl₂, 0.05% (w/v) BSA in a total volume of 50 μL using 96 well black Dynatech U bottom plates. After at least 90 minutes of equilibration, samples were read in a Rubystar reader (BMG Corp.) using 20 flashes per well, a 50 usec integration delay, and a 200 usec total integration time. Data were expressed as the ratio of (F1665/F1620×10000) and an IC₅₀ for 1B20 was determined from the inflection point of a sigmoidal dose-response curve using a standard four parameter fit."}, "[6]": {"target": "T1, hPCSK9v5His", "test": "SPR Biacore 2000; IgG captured on goat anti-human IgG, PCSK9 in flow", "procedure": "(§5) A goat Anti-Human IgG (Caltag, catalog #H10700) was covalently coupled to surfaces 1 and 2 of a Sensor Chip CM5 via primary amine groups, using the immobilization wizard with the “Aim for immobilization” option using Biacore™ Amine Coupling Kit (cat#BR-1000-50. A target immobilization of 5000 RU was specified. The wizard uses a 7 minute activation with a 1:1 mixture of 100 mM NHS (N-Hydroxysuccinimide) and 400 mM EDC (1-ethyl-3-(3-dimethylaminopropyl)-carbodiimide), injects the ligand in several pulses to achieve the desired level, then deactivates the remaining surface with a 7 minute pulse of ethanolamine.\n(§6) Anti-PCSK9 IgGs were captured on capture surface 2, and surface 1 was used as a reference for kinetic studies of IgG:PCSK9 interactions. IgG was captured by flowing a 10 nM solution at 10 μl/min for 1-1.5 minutes to reach a target RL for an R max of 100-150 RU for the reaction. 5-10 concentrations of hPCSK9v5His or mPCSK9v5His antigens were flowed across the surface at 30 or 60 μl/minute for 4 minutes. 15-60 minutes dissociation time was allowed before regeneration of the Anti-IgG surface with a 60 second pulse of 10 mM Glycine pH 1.7.\n(§7) BiaEvaluation Software was used to evaluate the sensograms from the multiple concentration of PCSK9 antigen analyzed with each IgG, to estimate the kinetics constants of the IgG:PCSK9 interactions."}, "[7]": {"target": "T2, mPCSK9v5His", "test": "SPR Biacore 2000; IgG captured on goat anti-human IgG, PCSK9 in flow", "procedure": "as §5, §6, §7"}, "[8]": {"target": "T3, AlexaFluor647-labeled PCSK9", "test": "TR-FRET competition assay: 1B20 titrated against 10 nM AF647-PCSK9; the blocked ligand is Eu-sLDLR (about 4 nM); the Ratio falls from about 6200 to about 1000 (left curve, circles)", "procedure": "as §4"}, "[9]": {"target": "T1, hPCSK9v5His", "test": "Bio-Rad ProteOn SPR, Fab against human PCSK9-V5-His", "procedure": "Additional site-directed mutant variants of 1B20 were generated (mutations in the heavy chain) and are disclosed herein as SEQ ID NOs: 102-107. Kds of site-directed mutant variants of 1B20 Fabs were determined using a Bio-Rad ProteOn; with affinity being measured against human PCSK9-V5-His. The methodologies for measuring Fab affinities are essentially the same as previously described for Biacore®."}}, "data": [{"binder": "1B20 Fab (Fab, V domains shown, His-tagged Fab expressed in E. coli and purified by IMAC; also called 6CX1B20) VH: QVQLVQSGAEVKKPGESLKISCKGSGYSFTNYWISWVRQMPGKGLEWMGIIYPGDSYTNYSPSFQGQVTISADKSISTAYLQWSSLKASDTAMYYCARDYWYKPLFDIWGQGTLVTVSS VL: not shown", "values": [{"measurement": "IC50, inhibition of PCSK9-dependent loss of cellular LDL-uptake (Exopolar assay, HEK cells)", "setting": "[1]", "result": 145, "unit": "nM"}, {"measurement": "IC50, inhibition of PCSK9-dependent loss of cellular LDL-uptake (Exopolar assay, HEK cells)", "setting": "[2]", "result": 152, "unit": "nM"}, {"measurement": "Ka", "setting": "[3]", "result": "1.5e+09", "unit": "M⁻¹"}, {"measurement": "Kd", "setting": "[3]", "result": 0.74, "unit": "nM"}, {"measurement": "koff", "setting": "[3]", "result": "4.8e-05", "unit": "s⁻¹"}, {"measurement": "kon", "setting": "[3]", "result": 66000, "unit": "M⁻¹ s⁻¹"}, {"measurement": "Ka", "setting": "[4]", "result": "2e+09", "unit": "M⁻¹"}, {"measurement": "Kd", "setting": "[4]", "result": 0.51, "unit": "nM"}, {"measurement": "koff", "setting": "[4]", "result": "7.2e-05", "unit": "s⁻¹"}, {"measurement": "kon", "setting": "[4]", "result": 141000, "unit": "M⁻¹ s⁻¹"}, {"measurement": "IC50", "setting": "[5]", "result": 25.8, "unit": "nM"}]}, {"binder": "1B20 IgG (antibody, V domains shown, Full-length IgG2m4 with kappa light chain, expressed in HEK293 cells, purified on Protein A; also called 1B20 whole IgG; 1B20 IgG2m4) VH: QVQLVQSGAEVKKPGESLKISCKGSGYSFTNYWISWVRQMPGKGLEWMGIIYPGDSYTNYSPSFQGQVTISADKSISTAYLQWSSLKASDTAMYYCARDYWYKPLFDIWGQGTLVTVSS VL: not shown", "values": [{"measurement": "IC50, inhibition of PCSK9-dependent loss of cellular LDL-uptake (Exopolar assay, HEK cells)", "setting": "[1]", "result": 22, "unit": "nM"}, {"measurement": "IC50, inhibition of PCSK9-dependent loss of cellular LDL-uptake (Exopolar assay, HEK cells)", "setting": "[2]", "result": 13, "unit": "nM"}, {"measurement": "Ka", "setting": "[6]", "result": "1.4e+09", "unit": "M⁻¹"}, {"measurement": "Kd", "setting": "[6]", "result": 0.89, "unit": "nM"}, {"measurement": "koff", "setting": "[6]", "result": "4.3e-05", "unit": "s⁻¹"}, {"measurement": "kon", "setting": "[6]", "result": 53000, "unit": "M⁻¹ s⁻¹"}, {"measurement": "Ka", "setting": "[7]", "result": "7.4e+08", "unit": "M⁻¹"}, {"measurement": "Kd", "setting": "[7]", "result": 1.4, "unit": "nM"}, {"measurement": "koff", "setting": "[7]", "result": 0.00012, "unit": "s⁻¹"}, {"measurement": "kon", "setting": "[7]", "result": 89000, "unit": "M⁻¹ s⁻¹"}, {"measurement": "IC50", "setting": "[8]", "result": 2.8, "unit": "nM"}]}, {"binder": "1B20 Fab variant N59K (Fab, V domains shown, Site-directed variant of the 1B20 Fab, 'mutations in the heavy chain') VH: QVQLVQSGAEVKKPGESLKISCKGSGYSFTNYWISWVRQMPGKGLEWMGIIYPGDSYTKYSPSFQGQVTISADKSISTAYLQWSSLKASDTAMYYCARDYWYKPLFDIWGQGTLVTVSS VL: not shown", "values": [{"measurement": "Kd", "setting": "[9]", "result": 0.013, "unit": "nM"}]}, {"binder": "1B20 Fab variant N59Q (Fab, V domains shown, Site-directed variant of the 1B20 Fab, 'mutations in the heavy chain') VH: QVQLVQSGAEVKKPGESLKISCKGSGYSFTNYWISWVRQMPGKGLEWMGIIYPGDSYTQYSPSFQGQVTISADKSISTAYLQWSSLKASDTAMYYCARDYWYKPLFDIWGQGTLVTVSS VL: not shown", "values": [{"measurement": "Kd", "setting": "[9]", "result": 0.117, "unit": "nM"}]}, {"binder": "1B20 Fab variant N59R (Fab, V domains shown, Site-directed variant of the 1B20 Fab, 'mutations in the heavy chain') VH: QVQLVQSGAEVKKPGESLKISCKGSGYSFTNYWISWVRQMPGKGLEWMGIIYPGDSYTRYSPSFQGQVTISADKSISTAYLQWSSLKASDTAMYYCARDYWYKPLFDIWGQGTLVTVSS VL: not shown", "values": [{"measurement": "Kd", "setting": "[9]", "result": 0.049, "unit": "nM"}]}, {"binder": "1B20 Fab variant W101A (Fab, V domains shown, Site-directed variant of the 1B20 Fab, 'mutations in the heavy chain') VH: QVQLVQSGAEVKKPGESLKISCKGSGYSFTNYWISWVRQMPGKGLEWMGIIYPGDSYTNYSPSFQGQVTISADKSISTAYLQWSSLKASDTAMYYCARDYAYKPLFDIWGQGTLVTVSS VL: not shown", "values": [{"measurement": "Kd", "setting": "[9]", "result": 1.37, "unit": "nM"}]}, {"binder": "1B20 Fab variant W101F (Fab, V domains shown, Site-directed variant of the 1B20 Fab, 'mutations in the heavy chain') VH: QVQLVQSGAEVKKPGESLKISCKGSGYSFTNYWISWVRQMPGKGLEWMGIIYPGDSYTNYSPSFQGQVTISADKSISTAYLQWSSLKASDTAMYYCARDYFYKPLFDIWGQGTLVTVSS VL: not shown", "values": [{"measurement": "Kd", "setting": "[9]", "result": 1.12, "unit": "nM"}]}, {"binder": "1B20 Fab variant W101Y (Fab, V domains shown, Site-directed variant of the 1B20 Fab, 'mutations in the heavy chain') VH: QVQLVQSGAEVKKPGESLKISCKGSGYSFTNYWISWVRQMPGKGLEWMGIIYPGDSYTNYSPSFQGQVTISADKSISTAYLQWSSLKASDTAMYYCARDYYYKPLFDIWGQGTLVTVSS VL: not shown", "values": [{"measurement": "Kd", "setting": "[9]", "result": 0.78, "unit": "nM"}]}]}
